Laboratory results from patent US20240279618A1, “RECEPTOR TYROSINE KINASE AGONIST, COMPOSITION FOR CELL CULTURE MEDIUM, AND […] MAINTENANCE COMPOSITION” (SEKISUI CHEMICAL CO., LTD., priority 2021, published 2024).

T1: FGFR1-Fc (Homo sapiens, UniProt P11362)
T1 construct: each consisting of an extracellular region of FGFR1; purchased R & D Systems 661-FR
T1 sequence (P11362 22-285 isoform P11362-14 limits assumed): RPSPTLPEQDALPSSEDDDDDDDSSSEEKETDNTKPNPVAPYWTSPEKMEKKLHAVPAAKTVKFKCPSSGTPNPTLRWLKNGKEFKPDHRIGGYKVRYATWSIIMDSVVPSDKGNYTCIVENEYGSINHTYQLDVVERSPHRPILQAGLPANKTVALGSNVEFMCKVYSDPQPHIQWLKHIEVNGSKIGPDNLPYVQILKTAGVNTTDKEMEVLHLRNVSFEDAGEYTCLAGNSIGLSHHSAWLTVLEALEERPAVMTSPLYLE


What was measured:
[1] = tested on: NIH3T3 (mouse fibroblast cell line); test: Inhibition of growth factor activity of VHH homodimer by FGFR antagonist; assay type: cell-based; settings: 10 or 100 ng/mL test substance, 20 nM NVP-BGJ398
Protocol: The cell growth assay for FGF2 was performed according to the following procedure. On Day 1, a suspension including 2.5×10^4 cells/mL of NIH3T3 in DMEM of 10% CS and PS(+) was created, seeded on a CulturPlate-96 (White Opaque 96-well Microplate, manufactured by Perkin Elmer, Cat #6005680) at 100 μL/well, and cultured in a 5% CO2 incubator at 37° C. for 16 to 24 hours. On Day 2, the medium was replaced with FGF2 (PeproTech Cat #AF-100-18B) or serum-free PS(+) DMEM including various test substances, and the cells were further cultured for 2 days. On Day 4, the 96-well plate was left at room temperature for 30 minutes, and then 100 μL of Cell Titer Glo 2.0 Reagent (manufactured by Promega Corporation) at room temperature was added to each well, followed by stirring at 500 rpm for 2 minutes using a plate mixer. The plate was further left to stand for 8 minutes, and then the luminescence in each well was measured with a Synergy HTX plate reader (manufactured by BioTek) with a sensitivity set (Gain) of 200 and a measurement time of 1 s/well.
The addition amounts of FGF2 and #1L4 (hereinafter also referred to as “#1-L4-#1”), which is a dimer of VHH #1 with a linker […], were each 10 or 100 ng/mL.

FGFR1-Fc = molecular target: T1, FGFR1-Fc; test: Affinity measurement of VHH (monomer) by surface plasmon resonance (SPR); settings: 1:1 binding model; for ka: 25° C.; for Kd: Biacore T200, 25° C., read-out: equilibrium dissociation constant (KD)
Protocol: Affinity measurement of VHH (monomer) was performed by a surface plasmon resonance (SPR) method.
The binding activity of VHH Clone #1 or VHH Clone #2 immobilized on Series S Sensor Chip CAP (manufactured by Cytiva) with respect to FGFR1-Fc was measured using Biacore (registered trademark) T200 (manufactured by Cytiva). Measurement was performed by CAP Single-cycle Kinetics. The temperature was set to 25° C. As a running buffer, 10 mM HEPES (pH 7.4) (Cytiva) including HBS-EP+(150 mM NaCl, 0.5 mM EDTA, and 0.05% surfactant P20) was used. The measurement order for each run is as follows.
1) Immobilization of biotinylated FGFR1-Fc: The flow rate was set to […], Biotin CAPture Reagent (Cytiva) was added thereto for 300 seconds, then the flow rate was set to […], and an FGFR1-Fc solution diluted with a running buffer was added thereto for 120 seconds to immobilize 140 RU. Here, the “resonance unit (RU)” is a unit used in the above-described Biacore, and a change of an SPR angle of 0.1° is defined as 1,000 RU.
2) Measurement of binding activity: The flow rate was set to 30 μL/mL, and VHH Clone #1 or VHH Clone #2 each diluted to 1.85 nM, 5.56 nM, 16.67 nM, or 50 nM, using a running buffer, was allowed to have an association time set to 120 seconds for binding and a dissociation time set to 600 seconds for interaction.
3) Regeneration of sensor chip surface: The flow rate was set to 10 μL/mL, a solution in which Reaneration stock 1 and Regeneration stock 2 (manufactured by Cytiva) were mixed at the ratio of 3:1 was added thereto for 120 seconds to extract the immobilized VHH. Next, analysis was performed with a 1:1 binding model using Biacore T200 Evaluation (software version 2.0, manufactured by Cytiva), and the binding activity was calculated.

Row | ka (FGFR1-Fc) | Kd (FGFR1-Fc) | Molecule | cell growth activity with addition of NVP-BGJ398 [1]
1 | 1.11e+06 M⁻¹ s⁻¹ | 1.02 nM | VHH Clone #2: alpaca-derived VHH single-domain antibody (monomer) binding FGFR1, amino acid sequence SEQ ID NO: 18 (protein, VHH_Clone_#2) VHH: QVQLVESGGGLVQAGGSLRLSCAVPGSIFRFNTMGWYRQPPGKQRELVAQMSRGGITKYGDSVKGRFTITRDNAKNTVHLQMNSLKPEDTAVYYCAGSYYSGSYYYPSPQGFSVWGQGTQVTVSP | –
2 | 8.19e+06 M⁻¹ s⁻¹ | 1.74 nM | VHH Clone #1: alpaca-derived VHH single-domain antibody (monomer) binding FGFR1, amino acid sequence SEQ ID NO: 17 (protein, VHH_Clone_#1) VHH: QLQLVESGGGSVQAGGSLRLSCAASRSLSRFNVWTWYRQAPVKQRELVASITKSGDTNYAESVKGRFIISRDDDKNTVYLQMNNLKSEDTGIYYCAGSYYSGSYLYPSPGGFSVWGQGTQVTVSS | –

Further lines, the molecule ahead of its results:

Row | Molecule | ka (FGFR1-Fc) | Kd (FGFR1-Fc) | cell growth activity with addition of NVP-BGJ398 [1]
3 | FGF2: fibroblast growth factor (basic), human, recombinant (154aa), positive control; SEQ ID NO: 58 [reference compound] | – | – | inhibited
4 | #1-L4-#1: dimer of VHH #1 with linker L4 (GSEGKSSGSGSESKST), SEQ ID NO: 23 (protein, #1-L4-#1) VHH: QLQLVESGGGSVQAGGSLRLSCAASRSLSRFNVWTWYRQAPVKQRELVASITKSGDTNYAESVKGRFIISRDDDKNTVYLQMNNLKSEDTGIYYCAGSYYSGSYLYPSPGGFSVWGQGTQVTVSSGSEGKSSGSGSESKSTQLQLVESGGGSVQAGGSLRLSCAASRSLSRFNVWTWYRQAPVKQRELVASITKSGDTNYAESVKGRFIISRDDDKNTVYLQMNNLKSEDTGIYYCAGSYYSGSYLYPSPGGFSVWGQGTQVTVSS | – | – | inhibited
